Experimental data: paper PMC10870172, “Single-molecule FRET probes allosteric effects on protein-translocating pore loops of a AAA+ machine” (Biophysical Journal, 2024)
One block for each binder: values may come before it.

B3: Thermus thermophilus ClpB variant with truncated N-terminal domain, starting at residue 141 (Val) (domain or fragment)
chain: not shown
notes: ClpB, Thermus thermophilus, N-terminal domain truncated, starting at residue 141 (Val); numbering as in full-length TT ClpB; no cysteine replacement is printed; Theoretical MW of the hexamer 484.8 kDa (D1:p9); also called wt; dNClpB; source: E. coli, purified

Key:
[1] = molecular target: the molecule itself; assay: native gel or EMSA; native PAGE (6% acrylamide) of 1:100 labeled:unlabeled ClpB samples after the refolding and mixing procedure; stained with Coomassie Blue, panel a also imaged with a Typhoon scanner at 532 nm; run at 4°C, 30 V, 2 mM ATP, 4 mM Mg2+
[2] = molecular target: the molecule itself; assay: native gel or EMSA; native gel (6% acrylamide), stained with Coomassie Blue; run at 4°C, 30 V, 2 mM ATP, 4 mM Mg2+; NativeMark Unstained Protein Standard
[3] = molecular target: B3; assay: native gel or EMSA; native PAGE (6% acrylamide) of 1:100 labeled:unlabeled ClpB samples after the refolding and mixing procedure; stained with Coomassie Blue, panel a also imaged with a Typhoon scanner at 532 nm; run at 4°C, 30 V, 2 mM ATP, 4 mM Mg2+; details: both partners purified
[4] = molecular target: T1, PL3 BB: reassembled ClpB hexamer with one Alexa-labelled S359C-Y646C E271A/E668A protomer among unlabelled … (Thermus thermophilus, UniProt Q9RA63 141-854; Q9RA63 141-854, S359C | Y646C | E271A | E668A | E271A | E668A, Alexa Fluor 488 C5 maleimide and Alexa Fluor 594 C5 maleimide on the cysteines at 359 and 646); assay: other fluorescence titration; single-molecule FRET on freely diffusing reassembled ClpB hexamers (1:100 labeled:unlabeled, ~50 pM labeled, ~5 nM total ClpB), increasing concentrations of unlabeled κ-casein; ratio of the H2MM-derived population of state 1 with and without casein fitted to a simple binding isotherm; 25 mM HEPES, 25 mM KCl, 10 mM MgCl2, 2 mM ATP, 0.01% Tween 20, pH 8, 22°C; details: both partners purified
T1 construct: ClpB, Thermus thermophilus, N-terminal domain truncated, starting at residue 141 (Val); numbering as in full-length TT ClpB; ClpB, Thermus thermophilus, N-terminal domain truncated, starting at residue 141 (Val), unlabelled cysteine-less; With the 1:100 ratio most hexamers hold no labelled protomer; only hexamers with one labelled protomer give the signal; also called PL3 double-Walker B …

[5] = molecular target: T2, PL1 BB: reassembled ClpB hexamer with one Alexa-labelled S236C-S359C E271A/E668A protomer among unlabelled … (Thermus thermophilus, UniProt Q9RA63 141-854; Q9RA63 141-854, S236C | S359C | E271A | E668A | E271A | E668A, Alexa Fluor 488 C5 maleimide and Alexa Fluor 594 C5 maleimide on the cysteines at 236 and 359); assay: as above; details: both partners purified
T2 construct: ClpB, Thermus thermophilus, N-terminal domain truncated, starting at residue 141 (Val); numbering as in full-length TT ClpB; ClpB, Thermus thermophilus, N-terminal domain truncated, starting at residue 141 (Val), unlabelled cysteine-less; With the 1:100 ratio most hexamers hold no labelled protomer; only hexamers with one labelled protomer give the signal; also called PL1 double-Walker B …

B1: ClpB (N-terminally truncated, from residue 141) K347A (domain or fragment)
chain: not shown
notes: ClpB, Thermus thermophilus, N-terminal domain truncated, starting at residue 141 (Val); numbering as in full-length TT ClpB; also called hyper; hyperactive mutant; source: E. coli, purified
- binding result [1]: binds

B2: ClpB (N-terminally truncated, from residue 141) E668A (domain or fragment)
chain: not shown
notes: ClpB, Thermus thermophilus, N-terminal domain truncated, starting at residue 141 (Val); numbering as in full-length TT ClpB; also called B2; Walker B2; source: E. coli, purified
- binding result [1]: binds

Binder: B3
- stoichiometry N [2]: 6

- binding result [3]: binds
B4: ClpB (N-terminally truncated, from residue 141) S359C-Y646C, labelled with Alexa Fluor 488 and Alexa Fluor 594 (domain or fragment)
chain: not shown
modifications: Alexa Fluor 488 C5 maleimide and Alexa Fluor 594 C5 maleimide on the cysteines at 359 and 646
notes: ClpB, Thermus thermophilus, N-terminal domain truncated, starting at residue 141 (Val); numbering as in full-length TT ClpB; The labelled protomer alone, as mixed 1:100 with unlabelled ClpB (Dm4); also called PL3; PL3 construct S359C-Y646C; source: E. coli, purified, labelled

- Kd [4]: 1600 nM
- Kd [5]: 2000 nM
B5: κ-casein (natural protein)
chain: not shown
notes: κ-casein (Sigma Aldrich), unlabelled soluble model substrate protein; also called model substrate protein; source: bought: Sigma Aldrich

B6: ClpB (N-terminally truncated, from residue 141) K204T (domain or fragment, Thermus thermophilus, UniProt Q9RA63 141-854, looked up)
chain: VQTEHAESTYNALEQYGIDLTRLAAEGKLDPVIGRDEEIRRVIQILLRRTKNNPVLIGEPGVGTTAIVEGLAQRIVKGDVPEGLKGKRIVSLQMGSLLAGAKYRGEFEERLKAVIQEVVQSQGEVILFIDELHTVVGAGKAEGAVDAGNMLKPALARGELRLIGATTLDEYREIEKDPALERRFQPVYVDEPTVEETISILRGLKEKYEVHHGVRISDSAIIAAATLSHRYITERRLPDKAIDLIDEAAARLRMALESAPEEIDALERKKLQLEIEREALKKEKDPDSQERLKAIEAEIAKLTEEIAKLRAEWEREREILRKLREAQHRLDEVRREIELAERQYDLNRAAELRYGELPKLEAEVEALSEKLRGARFVRLEVTEEDIAEIVSRWTGIPVSKLLEGEREKLLRLEEELHKRVVGQDEAIRAVADAIRRARAGLKDPNRPIGSFLFLGPTGVGKTELAKTLAATLFDTEEAMIRIDMTEYMEKHAVSRLIGAPPGYVGYEEGGQLTEAVRRRPYSVILFDEIEKAHPDVFNILLQILDDGRLTDSHGRTVDFRNTVIILTSNLGSPLILEGLQKGWPYERIRDEVFKVLQQHFRPEFLNRLDEIVVFRPLTKEQIRQIVEIQLSYLRARLAEKRISLELTEAAKDFLAERGYDPVFGARPLRRVIQRELETPLAQKILAGEVKEGDRVQVDVGPAGLVFAVPARVEA
notes: ClpB, Thermus thermophilus, N-terminal domain truncated, starting at residue 141 (Val); numbering as in full-length TT ClpB; also called A1; Walker A1; source: E. coli, purified
- binding result [1]: binds

B7: ClpB (N-terminally truncated, from residue 141) double Walker B mutant E271A/E668A (domain or fragment, Thermus thermophilus, UniProt Q9RA63 141-854, looked up)
chain: VQTEHAESTYNALEQYGIDLTRLAAEGKLDPVIGRDEEIRRVIQILLRRTKNNPVLIGEPGVGKTAIVEGLAQRIVKGDVPEGLKGKRIVSLQMGSLLAGAKYRGEFEERLKAVIQEVVQSQGEVILFIDALHTVVGAGKAEGAVDAGNMLKPALARGELRLIGATTLDEYREIEKDPALERRFQPVYVDEPTVEETISILRGLKEKYEVHHGVRISDSAIIAAATLSHRYITERRLPDKAIDLIDEAAARLRMALESAPEEIDALERKKLQLEIEREALKKEKDPDSQERLKAIEAEIAKLTEEIAKLRAEWEREREILRKLREAQHRLDEVRREIELAERQYDLNRAAELRYGELPKLEAEVEALSEKLRGARFVRLEVTEEDIAEIVSRWTGIPVSKLLEGEREKLLRLEEELHKRVVGQDEAIRAVADAIRRARAGLKDPNRPIGSFLFLGPTGVGKTELAKTLAATLFDTEEAMIRIDMTEYMEKHAVSRLIGAPPGYVGYEEGGQLTEAVRRRPYSVILFDAIEKAHPDVFNILLQILDDGRLTDSHGRTVDFRNTVIILTSNLGSPLILEGLQKGWPYERIRDEVFKVLQQHFRPEFLNRLDEIVVFRPLTKEQIRQIVEIQLSYLRARLAEKRISLELTEAAKDFLAERGYDPVFGARPLRRVIQRELETPLAQKILAGEVKEGDRVQVDVGPAGLVFAVPARVEA
notes: ClpB, Thermus thermophilus, N-terminal domain truncated, starting at residue 141 (Val); numbering as in full-length TT ClpB; also called BB; source: E. coli, purified
- stoichiometry N [2]: 6

B8: ClpB (N-terminally truncated, from residue 141) E271A (domain or fragment, Thermus thermophilus, UniProt Q9RA63 141-854, looked up)
chain: VQTEHAESTYNALEQYGIDLTRLAAEGKLDPVIGRDEEIRRVIQILLRRTKNNPVLIGEPGVGKTAIVEGLAQRIVKGDVPEGLKGKRIVSLQMGSLLAGAKYRGEFEERLKAVIQEVVQSQGEVILFIDALHTVVGAGKAEGAVDAGNMLKPALARGELRLIGATTLDEYREIEKDPALERRFQPVYVDEPTVEETISILRGLKEKYEVHHGVRISDSAIIAAATLSHRYITERRLPDKAIDLIDEAAARLRMALESAPEEIDALERKKLQLEIEREALKKEKDPDSQERLKAIEAEIAKLTEEIAKLRAEWEREREILRKLREAQHRLDEVRREIELAERQYDLNRAAELRYGELPKLEAEVEALSEKLRGARFVRLEVTEEDIAEIVSRWTGIPVSKLLEGEREKLLRLEEELHKRVVGQDEAIRAVADAIRRARAGLKDPNRPIGSFLFLGPTGVGKTELAKTLAATLFDTEEAMIRIDMTEYMEKHAVSRLIGAPPGYVGYEEGGQLTEAVRRRPYSVILFDEIEKAHPDVFNILLQILDDGRLTDSHGRTVDFRNTVIILTSNLGSPLILEGLQKGWPYERIRDEVFKVLQQHFRPEFLNRLDEIVVFRPLTKEQIRQIVEIQLSYLRARLAEKRISLELTEAAKDFLAERGYDPVFGARPLRRVIQRELETPLAQKILAGEVKEGDRVQVDVGPAGLVFAVPARVEA
notes: ClpB, Thermus thermophilus, N-terminal domain truncated, starting at residue 141 (Val); numbering as in full-length TT ClpB; also called B1; Walker B1; source: E. coli, purified
- binding result [1]: binds
